Test results from patent publication US20140087995A1 (published 2014).
Numbered stars: 1 amine (or outer) side, 2 acyl side, 3 side chain; on linkers, the order of the positions; unused ones are H or OH. Bridge positions count the residues as written; N and C are the ends. * marks the point of attachment. C20 diacid = O=C(O)CCCCCCCCCCCCCCCCCCC(=O)*; γGlu = O=C(O)[C@H](CCC(=O)[*:2])N[*:1]

T1: rat amylin receptor (rat calcitonin receptor + rat RAMP 3) (rat, UniProt P32214 25-516; Q9JJ73 23-147)
T1 construct: whole, on cells; Membranes of BHK tk'ts 13 cells transiently transfected with the rat calcitonin receptor and rat RAMP 3; also called rAmylin-R; rat amylin 3(a) receptor
T1 sequence (looked up) 1: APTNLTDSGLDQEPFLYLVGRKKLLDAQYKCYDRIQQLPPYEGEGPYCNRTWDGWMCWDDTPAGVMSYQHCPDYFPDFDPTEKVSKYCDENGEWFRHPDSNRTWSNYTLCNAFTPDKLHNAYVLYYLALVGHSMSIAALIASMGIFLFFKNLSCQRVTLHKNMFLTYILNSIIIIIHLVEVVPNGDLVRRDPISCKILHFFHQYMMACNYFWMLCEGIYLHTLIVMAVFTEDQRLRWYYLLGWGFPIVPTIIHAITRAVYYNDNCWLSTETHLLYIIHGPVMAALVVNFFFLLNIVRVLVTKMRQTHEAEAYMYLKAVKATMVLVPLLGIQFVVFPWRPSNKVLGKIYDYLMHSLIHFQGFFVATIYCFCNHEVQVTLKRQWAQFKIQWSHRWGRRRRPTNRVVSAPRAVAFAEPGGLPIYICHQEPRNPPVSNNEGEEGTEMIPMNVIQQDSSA
T1 sequence (looked up) 2: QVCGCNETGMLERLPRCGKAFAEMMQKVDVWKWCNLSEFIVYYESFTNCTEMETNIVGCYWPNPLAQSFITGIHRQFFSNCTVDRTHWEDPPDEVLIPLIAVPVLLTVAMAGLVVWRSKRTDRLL

T2: rat calcitonin receptor (rat, UniProt P32214 25-516)
T2 construct: whole, on cells; Membranes of BHK tk'ts 13 cells transiently transfected with the rat calcitonin receptor; also called rCTR; rat calcitonin (a) receptor
T2 sequence (looked up): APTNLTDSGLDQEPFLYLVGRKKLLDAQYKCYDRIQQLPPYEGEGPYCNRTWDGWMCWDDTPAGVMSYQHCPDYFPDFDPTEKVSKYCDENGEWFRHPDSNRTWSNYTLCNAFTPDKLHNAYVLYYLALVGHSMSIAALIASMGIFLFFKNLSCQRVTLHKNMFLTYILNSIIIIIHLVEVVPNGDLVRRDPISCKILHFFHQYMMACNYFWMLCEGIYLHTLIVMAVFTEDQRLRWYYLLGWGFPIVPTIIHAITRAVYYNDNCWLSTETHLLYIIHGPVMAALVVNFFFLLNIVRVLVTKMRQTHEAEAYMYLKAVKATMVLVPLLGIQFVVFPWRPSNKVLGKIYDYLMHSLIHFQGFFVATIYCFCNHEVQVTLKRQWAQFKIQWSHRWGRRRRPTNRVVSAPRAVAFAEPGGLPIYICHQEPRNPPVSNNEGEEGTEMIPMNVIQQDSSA

T3: human calcitonin receptor (human, UniProt P30988 25-474)
T3 construct: whole, on cells; Membranes of a BHK tk'ts 13 cell line stably transfected with the human calcitonin receptor; also called hCTR; hCT
T3 sequence (looked up): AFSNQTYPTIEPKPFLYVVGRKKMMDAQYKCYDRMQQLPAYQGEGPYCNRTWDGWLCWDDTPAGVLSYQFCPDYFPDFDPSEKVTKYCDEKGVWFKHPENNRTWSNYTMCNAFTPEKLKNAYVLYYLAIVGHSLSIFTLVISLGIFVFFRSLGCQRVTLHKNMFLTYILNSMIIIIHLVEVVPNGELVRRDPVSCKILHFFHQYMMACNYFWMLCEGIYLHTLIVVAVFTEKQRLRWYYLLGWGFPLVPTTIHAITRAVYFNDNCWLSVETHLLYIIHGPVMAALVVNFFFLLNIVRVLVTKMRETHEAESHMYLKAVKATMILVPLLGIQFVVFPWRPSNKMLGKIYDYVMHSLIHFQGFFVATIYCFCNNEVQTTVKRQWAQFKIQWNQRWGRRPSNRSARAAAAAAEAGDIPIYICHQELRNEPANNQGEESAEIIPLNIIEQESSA


Assays:
[1] = target: T1, rat amylin receptor (rat calcitonin …); assay: SPA competition vs 125I-rat amylin, membranes with rat CTR + rat RAMP3 (Assay VI)
Procedure: The binding assay was performed using scintillation proximity assay (SPA) beads (RPNQ0001) from PerkinElmer and cell membranes from the Amylin 3(a)/CRE-luc cells (as described in Assay (II)) were used. Membranes were prepared in the following way; the cells were rinsed with PBS and incubated with Versene for approximately 5 min before harvesting. The cells were flushed with PBS and the cell-suspension was centrifuged for 5 min at 1000 rpm. Cells were homogenized (ultrathurrax) in a buffer containing 20 mM Na-HEPES and 10 mM EDTA (pH 7.4) and centrifuged at 20.000 rpm for 15 min. The resulting pellet was resuspended, homogenized and centrifuged (20.000 rpm, 15 min) in a buffer containing 20 mM Na-HEPES and 0.1 mM EDTA (pH 7.4, buffer 2). The resulting pellet was resuspended in buffer 2 and protein concentration was measured (BCA protein Assay, Pierce). The homogenate was kept cold during the whole procedure. The membranes were kept at −80° C. until use. The assay was performed in a 384 well Optiplate (PerkinElmer) in a total volume of 40 ul. Membranes were mixed with SPA beads. Final concentration of membranes 35 ng/μL final and SPA beads was 0.05 mg/well. Test-compounds were dissolved in DMSO and further diluted in assay buffer (50 mM Hepes, pH 7.4, 1 mM CaCl2, 5 mM MgCl₂, 0.1% OA and 0.02% Tween20). […] The final mixture was incubated with shaking at 400 rpm for 120 min at 25° C. prior to centrifugation (1500 rpm, 10 min). Samples were analyzed on TopCounter™ (Packard). The IC₅₀ was calculated using (one site binding competition analysis) GraphPad Prism5 as a measure of receptor affinity.
Cells were grown in DMEM with 10% FBS and 1% Pen/Strep. Approximately 48 hours after transfection, the cells were harvested and membranes were prepared.

rat calcitonin receptor [2] = target: T2, rat calcitonin receptor; assay: SPA competition vs 125I-calcitonin, membranes with rat CTR (Assay VIII)
rat calcitonin receptor [3] = target: T2, rat calcitonin receptor; assay: IC50 at rCTR divided by IC50 at rAmylin-R (reference)
[4] = target: T3, human calcitonin receptor; assay: IC50 at hCTR divided by IC50 at hAmylin-R (reference)
Procedure: The resulting pellet was resuspended, homogenized and centrifuged (20.000 rpm, 15 min) in a buffer containing 20 mM Na-HEPES and 0.1 mM EDTA (pH 7.4, buffer 2). The resulting pellet was resuspended in buffer 2 and protein concentration was measured (BCA protein Assay, Pierce). The homogenate was kept cold during the whole procedure. The membranes were kept at −80° C. until use. The assay was performed in a 384 well Optiplate (PerkinElmer) in a total volume of 40 ul. Membranes were mixed with SPA beads. Final concentration of membranes 35 ng/μL final and SPA beads was 0.05 mg/well. Test-compounds were dissolved in DMSO and further diluted in assay buffer (50 mM Hepes, pH 7.4, 1 mM CaCl2, 5 mM MgCl₂, 0.1% OA and 0.02% Tween20). […] The final mixture was incubated with shaking at 400 rpm for 120 min at 25° C. prior to centrifugation (1500 rpm, 10 min). Samples were analyzed on TopCounter™ (Packard). The IC₅₀ was calculated using (one site binding competition analysis) GraphPad Prism5 as a measure of receptor affinity.
Membranes were prepared in the following way; the cells were rinsed with PBS and incubated with Versene for approximately 5 min before harvesting. The cells were flushed with PBS and the cell-suspension was centrifuged for 5 min at 1000 rpm. Cells were homogenized (Ultrathurrax) in a buffer containing 20 mM Na-HEPES and 10 mM EDTA (pH 7.4) and centrifuged at 20.000 rpm for 15 min. The resulting pellet was resuspended, homogenized and centrifuged (20.000 rpm, 15 min) in a buffer containing 20 mM Na-HEPES and 0.1 mM EDTA (pH 7.4, buffer 2). The resulting pellet was resuspended in buffer 2 and protein concentration was measured (BCA protein Assay, Pierce). The homogenate was kept cold during the whole procedure. The membranes were kept at −80° C. until use. Assay was performed in a 384 well Optiplate (PerkinElmer) in a total volume of 40 ul. Membranes were mixed with SPA beads.

Binder | IC50 [1] | IC50 (rat calcitonin receptor [2]) | Ratio rCT/rAmylin binding (rat calcitonin receptor [3]) | Ratio hCT/hAmylin binding [4]
{C20 diacid-γGlu}-KCNTATCATQRLAEFLRHSSPNFGPILPPTNVGSNTY-NH2 (disulfide 2-7; SMILES CC[C@H](C)[C@H](NC(=O)[C@@H]1CCCN1C(=O)CNC(=O)[C@H](Cc1ccccc1)NC(=O)[C@H](CC(N)=O)NC(=O)[C@@H]1CCCN1C(=O)[C@H](CO)NC(=O)[C@H](CO)NC(=O)[C@H](Cc1c[nH]cn1)NC(=O)[C@H](CCCNC(=N)N)NC(=O)[C@H](CC(C)C)NC(=O)[C@H](Cc1ccccc1)NC(=O)[C@H](CCC(=O)O)NC(=O)[C@H](C)NC(=O)[C@H](CC(C)C)NC(=O)[C@H](CCCNC(=N)N)NC(=O)[C@H](CCC(N)=O)NC(=O)[C@@H](NC(=O)[C@H](C)NC(=O)[C@@H]1CSSC[C@H](NC(=O)[C@H](CCCCN)NC(=O)CC[C@H](NC(=O)CCCCCCCCCCCCCCCCCCC(=O)O)C(=O)O)C(=O)N[C@@H](CC(N)=O)C(=O)N[C@@H]([C@@H](C)O)C(=O)N[C@@H](C)C(=O)N[C@@H]([C@@H](C)O)C(=O)N1)[C@@H](C)O)C(=O)N[C@@H](CC(C)C)C(=O)N1CCC[C@H]1C(=O)N1CCC[C@H]1C(=O)N[C@H](C(=O)N[C@@H](CC(N)=O)C(=O)N[C@H](C(=O)NCC(=O)N[C@@H](CO)C(=O)N[C@@H](CC(N)=O)C(=O)N[C@H](C(=O)N[C@@H](Cc1ccc(O)cc1)C(N)=O)[C@@H](C)O)C(C)C)[C@@H](C)O, modifications are with respect to human amylin; also called compound 6) | 2.37 nM | 51.5 nM | 21.7 | 20
{C20 diacid-γGlu}-KCNTATCATQRLAEFLRHSSPNFGAPLSSTNVGSNTY-NH2 (disulfide 2-7; SMILES CC(C)C[C@H](NC(=O)[C@H](CCCNC(=N)N)NC(=O)[C@H](CCC(N)=O)NC(=O)[C@@H](NC(=O)[C@H](C)NC(=O)[C@@H]1CSSC[C@H](NC(=O)[C@H](CCCCN)NC(=O)CC[C@H](NC(=O)CCCCCCCCCCCCCCCCCCC(=O)O)C(=O)O)C(=O)N[C@@H](CC(N)=O)C(=O)N[C@@H]([C@@H](C)O)C(=O)N[C@@H](C)C(=O)N[C@@H]([C@@H](C)O)C(=O)N1)[C@@H](C)O)C(=O)N[C@@H](C)C(=O)N[C@@H](CCC(=O)O)C(=O)N[C@@H](Cc1ccccc1)C(=O)N[C@@H](CC(C)C)C(=O)N[C@@H](CCCNC(=N)N)C(=O)N[C@@H](Cc1c[nH]cn1)C(=O)N[C@@H](CO)C(=O)N[C@@H](CO)C(=O)N1CCC[C@H]1C(=O)N[C@@H](CC(N)=O)C(=O)N[C@@H](Cc1ccccc1)C(=O)NCC(=O)N[C@@H](C)C(=O)N1CCC[C@H]1C(=O)N[C@@H](CC(C)C)C(=O)N[C@@H](CO)C(=O)N[C@@H](CO)C(=O)N[C@H](C(=O)N[C@@H](CC(N)=O)C(=O)N[C@H](C(=O)NCC(=O)N[C@@H](CO)C(=O)N[C@@H](CC(N)=O)C(=O)N[C@H](C(=O)N[C@@H](Cc1ccc(O)cc1)C(N)=O)[C@@H](C)O)C(C)C)[C@@H](C)O, modifications are with respect to human amylin; also called compound 7) [N^α1-[(4S)-4-carboxy-4-(19-carboxynonadecanoylamino)butanoyl]-[Glu14,Arg17,Pro21,Pro26]-h-amylin] | 1.12 nM | 47.2 nM | 42 | 16.5
{C20 diacid-γGlu}-KCNTATCATQRLAEFLRHSSPNFGAIPSSTNVGSRTY-NH2 (disulfide 2-7; SMILES CC[C@H](C)[C@H](NC(=O)[C@H](C)NC(=O)CNC(=O)[C@H](Cc1ccccc1)NC(=O)[C@H](CC(N)=O)NC(=O)[C@@H]1CCCN1C(=O)[C@H](CO)NC(=O)[C@H](CO)NC(=O)[C@H](Cc1c[nH]cn1)NC(=O)[C@H](CCCNC(=N)N)NC(=O)[C@H](CC(C)C)NC(=O)[C@H](Cc1ccccc1)NC(=O)[C@H](CCC(=O)O)NC(=O)[C@H](C)NC(=O)[C@H](CC(C)C)NC(=O)[C@H](CCCNC(=N)N)NC(=O)[C@H](CCC(N)=O)NC(=O)[C@@H](NC(=O)[C@H](C)NC(=O)[C@@H]1CSSC[C@H](NC(=O)[C@H](CCCCN)NC(=O)CC[C@H](NC(=O)CCCCCCCCCCCCCCCCCCC(=O)O)C(=O)O)C(=O)N[C@@H](CC(N)=O)C(=O)N[C@@H]([C@@H](C)O)C(=O)N[C@@H](C)C(=O)N[C@@H]([C@@H](C)O)C(=O)N1)[C@@H](C)O)C(=O)N1CCC[C@H]1C(=O)N[C@@H](CO)C(=O)N[C@@H](CO)C(=O)N[C@H](C(=O)N[C@@H](CC(N)=O)C(=O)N[C@H](C(=O)NCC(=O)N[C@@H](CO)C(=O)N[C@@H](CCCNC(=N)N)C(=O)N[C@H](C(=O)N[C@@H](Cc1ccc(O)cc1)C(N)=O)[C@@H](C)O)C(C)C)[C@@H](C)O, modifications are with respect to human amylin; also called compound 16) | 1.21 nM | 55.2 nM | 45.6 | 19.1
